Test results published in the Human Domainome abundance scans (Beltran et al. 2025).
± gives the uncertainty stated by the source.

B1: POU domain, class 2, transcription factor 1, residues 285 to 354; numbered along this chain, P14859 (parent)
chain: LEELEQFAKTFKQRRIKLGFTQGDVGLAMGKLYGNDFSQTTISRFEALNLSFKNMCKLKPLLEKWLNDAE

Variants of: B1
Experiment: abundance fitness (aPCA) (normalised: wild type 0, dead -1); higher = more abundant; growth selection in yeast, the domain comes from the species named
Details: Homo sapiens

Point of comparison: D24E, abundance fitness -0.008 ± 0.053. Against it:
- G30Q — within error, 0.102 ± 0.12
- G30D — within error, -0.087 ± 0.059
- G30T — within error, -0.028 ± 0.043
- G30N — within error, -0.113 ± 0.098
- G30M — within error, -0.024 ± 0.04
- G30E — within error, -0.025 ± 0.053
- G30C — within error, 0 ± 0.025
- G30H — within error, -0.068 ± 0.066
- G30R — within error, 0.01 ± 0.028
- G30A — within error, 0.014 ± 0.025
- G30F — within error, 0.014 ± 0.024
- G30P — lower, -0.209 ± 0.044
- G30Y — within error, 0.002 ± 0.045
- G30S — within error, -0.019 ± 0.026
- G30I — within error, 0.012 ± 0.026
- G30K — within error, -0.034 ± 0.074
- G30L — within error, -0.015 ± 0.02
- G30W — within error, 0.006 ± 0.024
- K31N — lower, -0.217 ± 0.11
- K31S — within error, -0.068 ± 0.029
- K31C — lower, -0.12 ± 0.047
- K31P — lower, -0.115 ± 0.022
- K31L — lower, -0.166 ± 0.026
- K31M — lower, -0.256 ± 0.057
- K31Y — within error, -0.069 ± 0.13
- K31E — within error, 0.058 ± 0.054
- K31D — within error, -0.029 ± 0.13
- K31H — within error, 0.003 ± 0.062
- K31W — lower, -0.323 ± 0.034
- K31R — within error, 0.018 ± 0.02
- K31I — lower, -0.495 ± 0.31
- K31G — within error, -0.066 ± 0.025
- K31F — within error, -0.126 ± 0.066
- K31V — lower, -0.126 ± 0.028
- K31Q — within error, -0.034 ± 0.038
- K31A — within error, -0.027 ± 0.023
- Y33Q — within error, -0.067 ± 0.028
- Y33M — within error, -0.11 ± 0.067
- Y33I — within error, -0.019 ± 0.039
- Y33C — within error, -0.04 ± 0.038
- Y33P — lower, -0.104 ± 0.021
- Y33G — within error, -0.097 ± 0.055
- Y33H — within error, 0.031 ± 0.023
- Y33R — lower, -0.103 ± 0.022
- Y33N — within error, -0.075 ± 0.034
- Y33K — within error, -0.053 ± 0.043
- Y33A — within error, -0.045 ± 0.053
- Y33D — lower, -0.125 ± 0.051
- Y33F — within error, -0.031 ± 0.05
- Y33E — within error, -0.047 ± 0.068
- Y33L — the same, -0.008 ± 0.027
- Y33S — within error, -0.039 ± 0.027
- G26I — within error, -0.076 ± 0.044
- G26F — within error, -0.082 ± 0.032
- G26L — within error, -0.054 ± 0.022
- G26S — within error, 0.025 ± 0.023
- G26D — within error, -0.052 ± 0.043
- G26K — within error, -0.095 ± 0.036
- G26W — within error, -0.051 ± 0.025
- G26E — within error, -0.025 ± 0.032
- G26A — within error, -0.027 ± 0.027
- G26Q — within error, -0.014 ± 0.046
- G26H — within error, -0.098 ± 0.051
- G26V — within error, -0.005 ± 0.023
- G26N — within error, -0.033 ± 0.037
- G26R — within error, -0.087 ± 0.03
- G26P — lower, -0.276 ± 0.035
- G26Y — within error, -0.043 ± 0.041
- G26M — within error, -0.04 ± 0.027
- G26C — within error, -0.043 ± 0.034
- G26T — within error, -0.038 ± 0.031
- A28K — the same, -0.008 ± 0.033
- A28T — within error, -0.01 ± 0.024
- A28H — within error, -0.059 ± 0.04
- A28I — within error, -0.054 ± 0.024
- A28S — within error, -0.042 ± 0.02
- A28F — lower, -0.11 ± 0.021
- A28M — within error, -0.043 ± 0.024
- A28L — within error, -0.04 ± 0.022
- A28E — lower, -0.508 ± 0.43
- A28P — lower, -0.56 ± 0.041
- A28V — within error, -0.052 ± 0.11
- A28N — within error, -0.061 ± 0.03
- A28Q — within error, 0.048 ± 0.05
- A28D — within error, -0.079 ± 0.11
- V25P — lower, -0.687 ± 0.09
- V25A — within error, -0.049 ± 0.064
- V25D — lower, -0.504 ± 0.25
- V25L — lower, -0.349 ± 0.26
- V25I — within error, -0.094 ± 0.086
- V25G — lower, -0.711 ± 0.12
- V25F — lower, -0.372 ± 0.17
- V25W — lower, -0.645 ± 0.11
- V25S — lower, -0.843 ± 0.1
- L27W — lower, -0.106 ± 0.041
- L27N — within error, -0.13 ± 0.072
- L27D — lower, -0.136 ± 0.07
- L27K — within error, -0.052 ± 0.054
- L27C — within error, 0.039 ± 0.044
- L27A — within error, 0.073 ± 0.056
- L27T — within error, -0.053 ± 0.067
- L27P — lower, -0.31 ± 0.034
- L27R — within error, 0.016 ± 0.02
- L27F — within error, 0.01 ± 0.038
- L27M — within error, 0 ± 0.035
- L27Y — within error, -0.113 ± 0.058
- L27E — within error, -0.002 ± 0.066
- L27V — within error, 0.003 ± 0.026
- L27Q — within error, 0.003 ± 0.029
- L27H — within error, 0.049 ± 0.034
- L27I — within error, -0.005 ± 0.035
- L32S — within error, -0.154 ± 0.18
- L32F — within error, -0.193 ± 0.23
- L32N — within error, -0.054 ± 0.048
- L32Q — within error, -0.012 ± 0.024
- L32T — within error, 0.005 ± 0.022
- L32K — within error, 0.031 ± 0.022
- L32D — within error, -0.078 ± 0.093
- L32E — within error, -0.005 ± 0.034
- L32R — within error, -0.031 ± 0.03
- L32V — within error, -0.226 ± 0.19
- L32H — within error, -0.004 ± 0.047
- L32G — lower, -0.107 ± 0.027
- L32A — within error, -0.006 ± 0.029
- D24A — within error, -0.058 ± 0.024
- D24H — within error, -0.06 ± 0.037
- D24S — lower, -0.097 ± 0.023
- D24T — lower, -0.089 ± 0.027
- D24R — lower, -0.151 ± 0.026
- D24V — lower, -0.218 ± 0.027
- D24M — lower, -0.11 ± 0.036
- D24K — lower, -0.124 ± 0.035
- D24G — within error, -0.091 ± 0.041
- D24W — lower, -0.238 ± 0.035
- D24P — lower, -0.846 ± 0.033
- D24Y — lower, -0.164 ± 0.045
- D24L — lower, -0.192 ± 0.02
- G23T — within error, -0.004 ± 0.025
- G23Q — within error, -0.023 ± 0.036
- G23S — within error, -0.021 ± 0.021
- G23V — higher, 0.113 ± 0.049
- G23L — within error, -0.009 ± 0.02
- G23W — within error, -0.069 ± 0.062
- G23M — within error, -0.023 ± 0.043
- G23Y — within error, -0.028 ± 0.037
- G23N — within error, 0.013 ± 0.046
- G23R — within error, -0.071 ± 0.047
- G23K — within error, 0.065 ± 0.055
- G23P — lower, -0.11 ± 0.022
- M29V — within error, 0.031 ± 0.023
- M29E — lower, -0.808 ± 0.085
- M29R — lower, -0.998 ± 0.092
- M29L — within error, -0.016 ± 0.019
- M29Y — lower, -0.512 ± 0.057
- M29D — lower, -0.727 ± 0.07
- M29Q — lower, -0.497 ± 0.045
- M29I — within error, -0.006 ± 0.042
- M29S — lower, -0.49 ± 0.026
- M29P — lower, -0.903 ± 0.044
- M29G — lower, -0.377 ± 0.041
- M29A — lower, -0.145 ± 0.022
- M29H — lower, -0.689 ± 0.059
- M29W — lower, -0.625 ± 0.089
- M29F — lower, -0.148 ± 0.027
- M29C — within error, -0.092 ± 0.049
- M29K — lower, -0.748 ± 0.081
